Measured values: patent US7033593
Where “and” joins values, the source holds several entries; their conditions need not be identical. Equal entries are not always repeated.

Legend:
[1] = biological target: soluble HIV 89.6 gp120 envelope protein (HIV 89.6 (Clade B) primary isolate) (UniProt Q73372)
[2] = biological target: scrambled sequence DP178 peptide; experiment: SPR SA-chip assay, scrDP178 surface
[3] = biological target: A32-gp120 complex (HIV 89.6 gp120 bound to mab A32) (HIV 89.6 (Clade B) primary isolate) (UniProt Q73372); experiment: SPR SA-chip assay, single component
[4] = biological target: soluble HIV 89.6 gp120 envelope protein (HIV 89.6 (Clade B) primary isolate) (UniProt Q73372); experiment: SPR SA-chip assay, 89.6 gp120 over scrDP178 surface
[5] = biological target: soluble HIV 89.6 gp120 envelope protein (HIV 89.6 (Clade B) primary isolate) (UniProt Q73372); remark: listed apart in the source
[6] = biological target: A32-gp120 complex (HIV 89.6 gp120 bound to mab A32) (HIV 89.6 (Clade B) primary isolate) (UniProt Q73372); experiment: SPR SA-chip assay (FIG. 28B)
[7] = biological target: soluble HIV 89.6 gp120 envelope protein (HIV 89.6 (Clade B) primary isolate) (UniProt Q73372); experiment: SPR SA-chip assay, gp120 over scrDP178 surface
[8] = biological target: HR-2 peptide DP178 (HIV-1 89.6)
soluble CD4 [9] = biological target: soluble CD4 (UniProt P01730); experiment: SPR, gp120 over immobilised CD4
soluble CD4 [10] = biological target: soluble CD4 (UniProt P01730); experiment: SPR (BIAcore), gp120 and CD4
soluble CD4 [11] = biological target: soluble CD4 (UniProt P01730); experiment: SPR, preliminary experiments

Substance: mAb 48d (antibody)
- % blocking of DP178 binding [1]: 80%

Substance: mab 17b (antibody)
- % blocking of DP178 binding [1]: 80%

Substance: mab 19b (antibody)
- % blocking of DP178 binding [1]: 68%

Substance: mab A32 (antibody)
- RU (background signal) [2]: 10 RU and 20 RU

Substance: scrambled sequence DP178 peptide
- koff [3]: 0.017 s⁻¹
- RU (background signal) [4]: 10 RU and 20 RU
- band density [5]: 0.6 ODunits/mm^2
- RU [6]: < 200 RU
- RU [7]: 50 RU

Substance: soluble HIV 89.6 gp120 envelope protein, Q73372 32-508
- koff [8]: 0.017 s⁻¹

Substance: soluble, monomeric gp120 DH12
- Kd (soluble CD4 [9]): 96 nM
- koff (soluble CD4 [9]): 0.00047 s⁻¹
- Kd (soluble CD4 [10]): 78 nM
- koff (soluble CD4 [10]): 0.000386 s⁻¹
- kon (soluble CD4 [10]): 4900 M⁻¹ s⁻¹
- t1/2 (soluble CD4 [10]): 30 min
- t1/2 of binding (soluble CD4 [11]): 25 min

Substance: soluble, monomeric gp120 JRFL
- Kd (soluble CD4 [9]): 146 nM
- koff (soluble CD4 [9]): 0.00088 s⁻¹
- Kd (soluble CD4 [10]): 150 nM
- koff (soluble CD4 [10]): 0.000884 s⁻¹
- kon (soluble CD4 [10]): 6000 M⁻¹ s⁻¹
- t1/2 of binding (soluble CD4 [11]): 14 min
